Test: yeast display, Sf9 membrane polyspecificity reagent, FACS + sequencing; frameworks hold sequencing errors
In short: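 A synthetic nanobody library was expressed on Saccharomyces cerevisiae BJ5465 by galactose induction for 36–48 hours. The library was stained for 1 hour at 4 °C with 10% biotinylated, detergent-solubilized Sf9 membrane reagent and enriched with streptavidin microbeads before FACS. Low and high (top ~1%) gates were set on anti-HA fluorescence for expression and streptavidin fluorescence for reagent binding, and each polyreactivity label reflects the gate of origin.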

| Sequence | polyreactivity (PSR sort gate) |
| --- | --- |
| QVQLVESGGGLDQAGGSLRLSCAASGSTFDWYTMGWNRQAPGKERELVAAISSGGRTYYADSVKGRFTISRDNAKNTVYLQMNSLKPEDTAVYYCAVAWRVGITKYGYWGQGTQVTVSS | high polyreactivity |
| QVQLVESGGGLDQAGGSLRLSCAASGSTFGYYAMGWYREAPGKERELVASITSDGSTNYADSVKGRFTISRDNAKNTVYLQMNSLKPEDTAVYYCAAYVWRYWHEYDYWGQGTLVTVSS | low polyreactivity |
| QVQLVESGGGLDQAGGSLRLSCAASGSTFNSYAMGWYRQAPGKERELVAAITSSVGSTYYADSVKGRFTISRDNAKNTVYLQMNSLKPEDTAVYYCAADYFSYWYFSGYDYWGQGTQVTVSS | low polyreactivity |
| QVQLVESGGGLDQAGGSLRLSCAASGSTFNSYVMGCYRQAPGKEREFVAAISWSGVRTYYADSVKGRFTISRDNAKNTVFLQMNSLIPEDTAVYYCAVRSGRRNYYRPAFGYWGQGTQVTVSS | high polyreactivity |
| QVQLVESGGGLDQAGGSLRLSCAASGSTFNWYTMGWYRQAPGKERELVAAISLNGGRTYYADSVKGRFTISRDNAKNTVYFQMNSLKQEDTAVYYCAAQISFYFAQYNLARFRGYYWGQGTQVTVSS | high polyreactivity |
| QVQLVESGGGLDQAGGSLRLSCAASGSTFRSNAMGWYRQAPGKERELVAGITSGTSTNYADSVKGRFTISRDNAKNTVYLQMNSLKPEDTAVYYCNTDRIWYGPEYDYWGQGTQVTVSS | low polyreactivity |
| QVQLVESGGGLDQAGGSLRLSCAASGSTFSRNAMGWYRQAPGKERELVAGISYIGGRTYYADSVKGRFTISRDNAKNTVYLQMNSLKPEDTAVYYCNVVPKSRDWQSYGSWGQGTQVTVSS | high polyreactivity |
| QVQLVESGGGLDQAGGSLRLSCAASGSTFYPYAMGWYRQAPGKERDFVAAISYSAGSTYYADSVKGRFTISRDNAKNTVYLQMHSLKPEDTAVYYCADYGWYTYQTSYDYWGQGTQVTVSS | low polyreactivity |
| QVQLVESGGGLDQAGGSLRLSCAASGSTLPVYALGWNRQAPGKERELVAAITDSGGNTYYADSVKGRFTISRDNAKNTVYLQMNSLKPEDTAVYYCNADAQSTSGYGYYAPYWMDYWGQGTQVTVSS | low polyreactivity |
| QVQLVESGGGLDQAGGSLRLSCAASGYTFNLNAMGWYRQAPGKERELVAAISSGDSTDYADSVKGRFTISRDNAKNTVYLQMHSLQPEDTAVYYCNADLPVVWRRDFWGDLYWGQATQVTVSS | low polyreactivity |
| QVQLVESGGGLDQAGGSLRLSCAASGYTYGTYDMRWYRQAPGKERELVAAISIGGSTNYADSVKGRFTISRDNAKNTVYLQMNSLKPEDTAVYYCAAEVNVGTLLLSVIVEDGDYWGQGTQVTVSS | low polyreactivity |
| QVQLVESGGGLDQAGGSLRLSCAAYGVPSLTMNMGWYRQAPGKERELFATIYSGGSTYYADSVKWRFTISRDNAKNTVYLQMNRLKPEDTAVYYCAARQSYYYSRSYIRGDYWGQGTQVTVSS | high polyreactivity |
| QVQLVESGGGLDQAGGSLRLSSAASGFIFDGNAMGWYRQAPGKERELVASITKSSGRTYYADSVKGRFTISRDNAKNTVYLQMNSLKPEDTAVYYCNKARRSVQPYGRQYDYWGQGTQVTVSS | high polyreactivity |
| QVQLVESGGGLDQAGGSLRLSSAASGRIFSKSAMGLYRQAPGKETELVAAMTSGGRTYYADSVKGRFTISRDIAKNTVYLQMNSLKPEDTAVYYCAARYVQVVRKFGYWVQGTQVTVSS | high polyreactivity |
| QVQLVESGGGLDQAGGSLRLTCADSGSIFIRNAMGWYRHAPGKESELVAAISGSGSSTYYADSVKGRFTISRDNAKNTVYLQMNSLKPEDTAVYYCNTDRTHSYQYGGYDYWGQGTQVTVSS | low polyreactivity |
| QVQLVESGGGLDQAGGSLSLSCAASGIIFAGNAMGWYRQPPGKERELVAAISSNGGSTYYADSVKGRFTISRDNAKNTVYLQMNSLKPEDTAVYYCAADRVYWGRVQGYYWGQGTQVTVSS | low polyreactivity |
| QVQLVESGGGLDQAGVSLRLSCAASGSTFSANAMGWFRQAPGKERELVAAISSGDITYYADSVKGRFTISRDNAKNTVYLQMNSLKPEDTAVYYCAKYTRPTGNVDDGFEYWGQGTQVTVSS | low polyreactivity |
| QVQLVESGGGLDQARGSLRLSCAASGLTFASNAMGWYRQAPGKERELVAAISWSDGSTYYADSVKGRFTISRDNAKNTVYLQMNSLKPEDTAVYYCAAEPPGFRTSRVGYWGQGTQVTVSS | low polyreactivity |
| QVQLVESGGGLDQARGSLRLSCAASGRTSLRYAMGWYRQAPWKERELVAAITSSGATTYYADSVKGRFTISRDNAKNTVYLQMNSLKPEDTAVYYCAAVYSAKRGSGGFGYWGQGTQVTVSS | high polyreactivity |
| QVQLVESGGGLDQARGTLRLSCAASGSTILGNAMGWYRHAPGKERELVAGITSGGTTNYADSVKGRFTISRVNAKNNVYLQMTSLKPEDTSVYYCNAGGHLEMNYWGKGTQVTVSS | low polyreactivity |
| QVQLVESGGGLDQEGVRLRLSCAASGRTFRIYAMGLYRQAPGNERELVAAISSDASTSYADSVKGRFTISRDNPKNTVYFQMNSLKPEATAVYYSAADPGPYFDWGYDFWGQGTQVTVSS | low polyreactivity |
| QVQLVESGGGLEQAGGSLRISCAASVSTVRFNAMGWYIQEPGKERQLVAVIRWRGGTTYYADSVKGRFTISRDNAKNTVYLQMNSLKPEDPAVYYCNADYWFSYTWHGSYTVGYWGQGTQVTVSS | high polyreactivity |

| Sequence | polyreactivity (PSR sort gate) |
| --- | --- |
| QVQLVESGGGLEQAGGSLRLSCAASGRTFYYYAMGWYRQAPGKERELVAAIRWRGGRTYADSVKGRFTISRDNAKNTVYLQMKSLKPEDTAVYYCAVDSFYRHASLYDYWGQGTQVTVSS | high polyreactivity |
| QVQLVESGGGLFHAGGSLRLICAASGTTFKYYAMGSYRQAPAIEREFVAAISTRTGNTYYADSVKGRFTISRDNAKNTVYLQMNSLKPEDTAVYYCAARPRQGRGYDFYYWGQGTQVTVSS | high polyreactivity |
| QVQLVESGGGLFQAAGSLRLSCAASGLTFAYNAMGWYRQAPGKERELDAEISKRGGSTFYADSVKGRFTLSHVNAKNTVYLQMNSLKPEDTAVYYCARGSYPYRSFWLTSDDWGQGTQVTVSS | high polyreactivity |
| QVQLVESGGGLFQAGGILRLSCAASGFIFSSYAMGLYRLAPGKERELVAAISRSGGRTYYADSVKGRFTISRDYAKNTVYLQMNSLKPEDTAVYYCAARWYGLYLQRYDYWGQGTQVTVSS | high polyreactivity |
| QVQLVESGGGLFQAGGSHRLSCAASGSTFRVYAMGWYRHAPGKERELVADISRSVTRTYYADSVKGRFTISRDNSKNTFYLQMNSLIPEETAVYYCAAVSYYRRWQTAYYSWGQGTQVTVSS | high polyreactivity |
| QVQLVESGGGLFQAGGSLGLSCAASGSTFSKYAMGWSRQAPGKERELVAAISSGGRTNYADSVKGRFTISRDNAKNTVYLHMNSLKPEDTAVYDCAALWGYWAYYYWGQGTQVTVSS | low polyreactivity |
| QVQLVESGGGLFQAGGSLPVSCAASGFIFDDYAMGWYRQAPGKERELVAAISSGGSTNYADSVKGRFTISRDNAKNTVYLQLNSLKPEDSAVYYCADRAGYQFSYNYWGQGTQVTVSS | high polyreactivity |
| QVQLVESGGGLFQAGGSLRFSCAASGIIFSTNAMGWYRQAPGKERELVATITSSSGRTYYADSVKGRFTISRDNAKNTLYLQMNSLKPEDTAVYYCATGGVLIKGHYYWGQGTQVTVSS | low polyreactivity |
| QVQLVESGGGLFQAGGSLRIICAASGSIFGAYAMGWYRQAPGKERELVAGIRRAGDSTYYADSVKGRFTISRDYAKNTVYLLMNCMKPEDTAVYYCAAYLYLEYYYRGQGTQVTVSS | low polyreactivity |
| QVQLVESGGGLFQAGGSLRITCSPSGFIFHGYAMGWYRQAPGKERELVAAISTGTNTNYADSLKGRFTISRDNAKNTVYIQMNRLKPEDTAVYYCNARSADTWYTSRRFYYWGQGTQVTVSS | low polyreactivity |
| QVQLVESGGGLFQAGGSLRLSCAASGFIFTGYAMGWYRQAPGKASELVAVISYSAGSTYYADSVKGRFTISRDNAKNTVYLQMNSLKPEDTAVYYCAADHGKNLTYDYWGQGTQVTVSS | high polyreactivity |
| QVQLVESGGGLFQAGGSLRLSCAASGFTFDYYAMGWYRQAPGKERELVADINRSGGSSYYADSVKGRFTISRDNAKNTVYLQMNSLKPEDTAVYYCNARVTPFFYHYPRDYYYWGQGTQVTVSS | high polyreactivity |
| QVQLVESGGGLFQAGGSLRLSCAASGFTFRANAMGWYRQAPGKERELVAVITGSGRTYYADSVKGRFTISRDNAKNTVYLQMNSLKPEDTAVYYCAARAAYRVSSPGYDSWGQGTQVTVSS | high polyreactivity |
| QVQLVESGGGLFQAGGSLRLSCAASGGIFFYYAMGGYRQAPGKERELVAAIRTNGGTTYYADSVKGRFTISRDNAKNTVYLQRNRLKTEDTAVYYCPAQPGGYYVRGEFDYWGQGTQVTLSS | low polyreactivity |
| QVQLVESGGGLFQAGGSLRLSCAASGIIFQRNDMGWYRQAPGKERELVANIRDGGITYADSVKGRFTISRDNAKNTVYLQMNSLKPEDTAVYYCARDDTSPGYCDQSSNAAYYYWGQGTQVTVSS | low polyreactivity |
| QVQLVESGGGLFQAGGSLRLSCAASGIIFQSYDMAWYRQAPGKERELVAAISRGGGSTYYADSVKGRFTISRDNAKNTVYLQMNSLIPEDTAVYYCAADYRGEYDYWGQGTQVTVSS | low polyreactivity |
| QVQLVESGGGLFQAGGSLRLSCAASGITFHRYDMVWYRQAPGKERELVADITWCGGSTYYADSVKGRFTISRDNAKNTVYLQMNSLKPEDTAVYYCAADASTYTDTPYDYWGQGSQVTVSS | low polyreactivity |
| QVQLVESGGGLFQAGGSLRLSCAASGITFPDYAMGWYRQAPGKERELVATISSSGGNTYYADSVKGRFTISRDNAKNTVYLQMNSLKPEDTAVYYCATVSYYLGYDYWGQGTQVTVSS | low polyreactivity |
| QVQLVESGGGLFQAGGSLRLSCAASGLIFGYYDMGWYRQAPGKERELVASISRNGGCTYYADSVKGRFTISRDNAKNTVYLQMNRLKTEDTAVYYCARTGPWARYSHGLYKSDYWGQGTQVTVAS | high polyreactivity |
| QVQLVESGGGLFQAGGSLRLSCAASGNIFAYNAMGWYRQAPGKERELVASIRYSGGSTYYADSVKGRFTISRDNAKNTVYLQINSLKPEDTAVYYCAKRGYSSYRTYNYWGQGTQVTVSS | high polyreactivity |
| QVQLVESGGGLFQAGGSLRLSCAASGRIFGLYAMGWYRQAPGKERELVAAISRGGGSTYYADSVKGRFTISRDNAKNTVYLQMNSLKAEDTAFDFCATGLGYFCRLDYWGQGTQLTVSS | low polyreactivity |
